B1: Centrosomal protein of 55 kDa (Homo sapiens), Q53EZ4 (parent)
chain: MSSRSTKDLIKSKWGSKPSNSKSETTLEKLKGEIAHLKTSVDEITSGKGKLTDKERHRLLEKIRVLEAEKEKNAYQLTEKDKEIQRLRDQLKARYSTTTLLEQLEETTREGERREQVLKALSEEKDVLKQQLSAATSRIAELESKTNTLRLSQTVAPNCFNSSINNIHEMEIQLKDALEKNQQWLVYDQQREVYVKGLLAKIFELEKKTETAAHSLPQQTKKPESEGYLQEEKQKCYNDLLASAKKDLEVERQTITQLSFELSEFRRKYEETQKEVHNLNQLLYSQRRADVQHLEDDRHKTEKIQKLREENDIARGKLEEEKKRSEELLSQVQFLYTSLLKQQEEQTRVALLEQQMQACTLDFENEKLDRQHVQHQLHVILKELRKARNQITQLESLKQLHEFAITEPLVTFQGETENREKVAASPKSPTAALNESLVECPKCNIQYPATEHRDLLVHVEYCSK
partner: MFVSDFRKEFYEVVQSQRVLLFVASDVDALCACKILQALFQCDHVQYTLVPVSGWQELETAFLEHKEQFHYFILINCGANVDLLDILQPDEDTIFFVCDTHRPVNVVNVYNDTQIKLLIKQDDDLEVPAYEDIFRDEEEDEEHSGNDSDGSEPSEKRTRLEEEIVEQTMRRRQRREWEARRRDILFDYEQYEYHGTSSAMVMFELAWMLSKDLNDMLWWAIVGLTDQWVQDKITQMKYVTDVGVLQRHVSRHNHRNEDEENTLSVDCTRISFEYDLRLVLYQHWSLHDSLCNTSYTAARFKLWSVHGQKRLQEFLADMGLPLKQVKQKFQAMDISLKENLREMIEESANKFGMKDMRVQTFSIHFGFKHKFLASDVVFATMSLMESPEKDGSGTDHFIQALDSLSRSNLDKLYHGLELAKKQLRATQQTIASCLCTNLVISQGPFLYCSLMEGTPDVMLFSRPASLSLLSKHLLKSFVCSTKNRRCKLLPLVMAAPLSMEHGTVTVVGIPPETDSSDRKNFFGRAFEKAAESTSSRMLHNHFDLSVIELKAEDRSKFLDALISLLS
B2: UPF0462 protein C4orf33 (Homo sapiens), Q8N1A6 (parent)
chain: MDFKIEHTWDGFPVKHEPVFIRLNPGDRGVMMDISAPFFRDPPAPLGEPGKPFNELWDYEVVEAFFLNDITEQYLEVELCPHGQHLVLLLSGRRNVWKQELPLSFRMSRGETKWEGKAYLPWSYFPPNVTKFNSFAIHGSKDKRSYEALYPVPQHELQQGQKPDFHCLEYFKSFNFNTLLGEEWKQPESDLWLIEKCDI
partner: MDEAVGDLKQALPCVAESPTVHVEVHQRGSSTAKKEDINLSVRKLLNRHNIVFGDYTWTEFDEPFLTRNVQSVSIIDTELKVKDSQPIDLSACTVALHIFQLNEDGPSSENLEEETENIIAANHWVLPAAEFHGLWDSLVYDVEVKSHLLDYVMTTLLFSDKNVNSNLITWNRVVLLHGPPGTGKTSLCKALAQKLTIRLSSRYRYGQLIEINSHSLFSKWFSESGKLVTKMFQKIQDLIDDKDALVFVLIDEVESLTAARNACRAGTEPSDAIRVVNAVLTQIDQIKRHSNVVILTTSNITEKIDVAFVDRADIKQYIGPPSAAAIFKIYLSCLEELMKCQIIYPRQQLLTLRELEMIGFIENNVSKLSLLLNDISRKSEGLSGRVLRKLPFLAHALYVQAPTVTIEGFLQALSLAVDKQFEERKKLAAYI
B3: Migration and invasion-inhibitory protein (Homo sapiens), Q5JXC2 (parent)
chain: MVEAEELAQLRLLNLELLRQLWVGQDAVRRSVARAASESSLESSSSYNSETPSTPETSSTSLSTSCPRGRSSVWGPPDACRGDLRDVARSGVASLPPAKCQHQESLGRPRPHSAPSLGTSSLRDPEPSGRLGDPGPQEAQTPRSILAQQSKLSKPRVTFSEESAVPKRSWRLRPYLGYDWIAGSLDTSSSITSQPEAFFSKLQEFRETNKEECICSHPEPQLPGLRESSGSGVEEDHECVYCYRVNRRLFPVPVDPGTPCRLCRTPRDQQGPGTLAQPAHVRVSIPLSILEPPHRYHIHRRKSFDASDTLALPRHCLLGWDIFPPKSEKSSAPRNLDLWSSVSAEAQHQKLSGTSSPFHPASPMQMLPPTPTWSVPQVPRPHVPRQKP
partner: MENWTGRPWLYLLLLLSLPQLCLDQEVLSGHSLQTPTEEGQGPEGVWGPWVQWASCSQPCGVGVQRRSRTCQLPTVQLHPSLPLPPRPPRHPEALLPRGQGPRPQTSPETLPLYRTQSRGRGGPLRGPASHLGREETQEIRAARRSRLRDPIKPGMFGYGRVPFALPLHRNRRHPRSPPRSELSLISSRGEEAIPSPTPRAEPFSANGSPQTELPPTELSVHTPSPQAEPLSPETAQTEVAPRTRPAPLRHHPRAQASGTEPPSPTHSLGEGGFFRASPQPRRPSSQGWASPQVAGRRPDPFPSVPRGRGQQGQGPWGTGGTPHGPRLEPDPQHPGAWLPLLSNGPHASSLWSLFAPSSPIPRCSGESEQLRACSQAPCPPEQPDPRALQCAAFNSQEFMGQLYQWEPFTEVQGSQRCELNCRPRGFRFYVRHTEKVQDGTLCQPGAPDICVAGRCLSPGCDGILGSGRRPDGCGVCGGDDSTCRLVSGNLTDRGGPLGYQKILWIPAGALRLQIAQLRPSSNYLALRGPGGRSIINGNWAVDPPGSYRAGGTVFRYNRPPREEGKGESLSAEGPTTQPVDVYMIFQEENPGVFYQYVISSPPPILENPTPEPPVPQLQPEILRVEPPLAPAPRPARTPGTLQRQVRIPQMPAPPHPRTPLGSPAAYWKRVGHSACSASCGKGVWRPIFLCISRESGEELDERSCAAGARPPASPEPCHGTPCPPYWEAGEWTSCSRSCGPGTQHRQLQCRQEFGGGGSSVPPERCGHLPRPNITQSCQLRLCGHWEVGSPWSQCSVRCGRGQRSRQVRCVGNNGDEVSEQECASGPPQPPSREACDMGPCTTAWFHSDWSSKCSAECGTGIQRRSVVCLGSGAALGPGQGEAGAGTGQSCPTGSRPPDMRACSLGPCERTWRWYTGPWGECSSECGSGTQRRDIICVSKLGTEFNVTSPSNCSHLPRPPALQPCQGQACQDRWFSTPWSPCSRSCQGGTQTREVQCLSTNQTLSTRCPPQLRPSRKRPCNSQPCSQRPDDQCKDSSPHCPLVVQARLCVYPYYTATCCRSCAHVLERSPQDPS
B4: Transmembrane protein 79 (Homo sapiens), Q9BSE2 (parent)
chain: MTEQETLALLEVKRSDSPEKSSPQALVPNGRQPEGEGGAESPGAESLRVGSSAGSPTAIEGAEDGLDSTVSEAATLPWGTGPQPSAPFPDPPGWRDIEPEPPESEPLTKLEELPEDDANLLPEKAARAFVPIDLQCIERQPQEDLIVRCEAGEGECRTFMPPRVTHPDPTERKWAEAVVRPPGCSCGGCGSCGDREWLRAVASVGAALILFPCLLYGAYAFLPFDVPRLPTMSSRLIYTLRCGVFATFPIVLGILVYGLSLLCFSALRPFGEPRREVEIHRRYVAQSVQLFILYFFNLAVLSTYLPQDTLKLLPLLTGLFAVSRLIYWLTFAVGRSFRGFGYGLTFLPLLSMLMWNLYYMFVVEPERMLTATESRLDYPDHARSASDYRPRPWG
partner: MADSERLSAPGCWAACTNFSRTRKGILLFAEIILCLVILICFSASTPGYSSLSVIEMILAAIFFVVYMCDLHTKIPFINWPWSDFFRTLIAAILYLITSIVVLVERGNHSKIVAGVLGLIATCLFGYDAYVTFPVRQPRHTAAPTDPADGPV
B5: G-patch domain and KOW motifs-containing protein (Homo sapiens), Q92917 (parent)
chain: MADSKEGVLPLTAASTAPISFGFTRTSARRRLADSGDGAGPSPEEKDFLKTVEGRELQSVKPQEAPKELVIPLIQNGHRRQPPARPPGPSTDTGALADGVVSQAVKELIAESKKSLEERENAGVDPTLAIPMIQKGCTPSGEGADSEPRAETVPEEANYEAVPVEAYGLAMLRGMGWKPGEGIGRTFNQVVKPRVNSLRPKGLGLGANLTEAQALTPTGPSRMPRPDEEQEKDKEDQPQGLVPGGAVVVLSGPHRGLYGKVEGLDPDNVRAMVRLAVGSRVVTVSEYYLRPVSQQEFDKNTLDLRQQNGTASSRKTLWNQELYIQQDNSERKRKHLPDRQDGPAAKSEKAAPRSQHWLHRDLRVRFVDNMYKGGQYYNTKMIIEDVLSPDTCVCRTDEGRVLEGLREDMLETLVPKAEGDRVMVVLGPQTGRVGHLLSRDRARSRALVQLPRENQVVELHYDAICQYMGPSDTDDD
partner: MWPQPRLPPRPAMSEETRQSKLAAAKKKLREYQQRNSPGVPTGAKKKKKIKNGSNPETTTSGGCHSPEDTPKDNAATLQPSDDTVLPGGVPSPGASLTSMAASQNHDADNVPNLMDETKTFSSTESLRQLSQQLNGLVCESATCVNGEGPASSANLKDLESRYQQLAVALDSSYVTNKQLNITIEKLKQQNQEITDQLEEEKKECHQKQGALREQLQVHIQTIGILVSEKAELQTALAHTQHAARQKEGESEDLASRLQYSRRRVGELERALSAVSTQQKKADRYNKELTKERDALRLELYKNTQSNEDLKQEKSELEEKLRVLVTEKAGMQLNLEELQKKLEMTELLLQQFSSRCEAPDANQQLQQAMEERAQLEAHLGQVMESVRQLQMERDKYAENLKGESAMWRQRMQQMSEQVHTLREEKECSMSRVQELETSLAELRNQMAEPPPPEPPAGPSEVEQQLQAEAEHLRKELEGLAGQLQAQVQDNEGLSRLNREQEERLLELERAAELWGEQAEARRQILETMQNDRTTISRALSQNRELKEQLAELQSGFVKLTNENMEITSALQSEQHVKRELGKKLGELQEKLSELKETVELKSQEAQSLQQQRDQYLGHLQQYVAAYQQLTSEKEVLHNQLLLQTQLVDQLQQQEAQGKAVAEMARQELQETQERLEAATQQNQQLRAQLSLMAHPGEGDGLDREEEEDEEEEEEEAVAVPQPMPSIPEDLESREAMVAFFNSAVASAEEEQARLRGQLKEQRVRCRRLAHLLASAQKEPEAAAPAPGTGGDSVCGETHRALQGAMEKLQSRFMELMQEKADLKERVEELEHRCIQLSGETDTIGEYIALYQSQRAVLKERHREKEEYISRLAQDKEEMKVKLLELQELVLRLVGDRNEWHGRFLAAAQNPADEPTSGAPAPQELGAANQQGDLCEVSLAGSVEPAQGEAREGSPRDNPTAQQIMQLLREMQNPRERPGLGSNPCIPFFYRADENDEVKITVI
B6: Macrophage scavenger receptor types I and II (Homo sapiens), P21757 (parent)
chain: MEQWDHFHNQQEDTDSCSESVKFDARSMTALLPPNPKNSPSLQEKLKSFKAALIALYLLVFAVLIPLIGIVAAQLLKWETKNCSVSSTNANDITQSLTGKGNDSEEEMRFQEVFMEHMSNMEKRIQHILDMEANLMDTEHFQNFSMTTDQRFNDILLQLSTLFSSVQGHGNAIDEISKSLISLNTTLLDLQLNIENLNGKIQENTFKQQEEISKLEERVYNVSAEIMAMKEEQVHLEQEIKGEVKVLNNITNDLRLKDWEHSQTLRNITLIQGPPGPPGEKGDRGPTGESGPRGFPGPIGPPGLKGDRGAIGFPGSRGLPGYAGRPGNSGPKGQKGEKGSGNTLTPFTKVRLVGGSGPHEGRVEILHSGQWGTICDDRWEVRVGQVVCRSLGYPGVQAVHKAAHFGQGTGPIWLNEVFCFGRESSIEECKIRQWGTRACSHSEDAGVTCTL

Variants of: B1
Details: with cdc45_human CDC45, O75419
For H57Q, the “effect of a mutation on the interaction” value was “with no effect”. In the case of C236R, the “effect of a mutation on the interaction” value is reported as “with no effect”. For A244P, the “effect of a mutation on the interaction” value was “with no effect”. With R348K the “effect of a mutation on the interaction” value was “with no effect”.

Variants of: B2
Details: with pch2_human TRIP13, Q15645
For H166R, the “effect of a mutation on the interaction” value was “with no effect”.

Variants of: B3
Details: with atl4_human ADAMTSL4, Q6UY14
R171C was tested, and the “effect of a mutation on the interaction” value was “with no effect”.

Variants of: B4
Details: with plp2_human PLP2, Q04941
With V147M the “effect of a mutation on the interaction” value was “with no effect”. D144G was tested, and the “effect of a mutation on the interaction” value was “with no effect”. S104T was tested, and the “effect of a mutation on the interaction” value was “with no effect”.

Variants of: B5
Details: with goga2_human GOLGA2, Q08379
For A129T, the “effect of a mutation on the interaction” value was “with no effect”. In the case of V393A, the “effect of a mutation on the interaction” value is reported as “with no effect”.

Variants of: B6
Details: with lerl1_human LEPROTL1, O95214
Sequence of lerl1_human LEPROTL1, O95214 (O95214 whole entry): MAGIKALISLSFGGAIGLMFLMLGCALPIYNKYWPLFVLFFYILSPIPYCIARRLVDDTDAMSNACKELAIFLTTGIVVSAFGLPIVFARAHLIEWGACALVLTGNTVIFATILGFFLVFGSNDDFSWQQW
With P286T the “effect of a mutation on the interaction” value was “with no effect”.
